Reference: publication PMC7766583 (International Journal of Molecular Sciences, 2020)

Assays:
amyloid beta 1-42 = biological target: T1, amyloid beta 1-42 (human, UniProt P05067 672-713); assay: SPR; cypD captured on an amine-coupled anti-cypD antibody; oligomeric Aβ (Preparation A) injected at 1 μM for 5 min; running buffer 10 mM HEPES pH 7.4, 5 mM Na+, BSA 200 μg/mL, K+ 0-500 mM, Mg2+ 0-50 mM; 25 °C, 20 µL/min; reference-compensated response 5 min after return to buffer; details: both partners purified
T1 construct: amyloid beta fragment 1-42 (42 amino acids), human, synthetic; numbers count on: the Aβ peptide; Used in an oligomeric form (Preparation A) and a monomeric form (Preparation B); The two forms are told apart by the assay; also called Aβ_(1–42); Aβ; source: synthetic peptide; bought: AnaSpec
T1 sequence (P05067 672-713): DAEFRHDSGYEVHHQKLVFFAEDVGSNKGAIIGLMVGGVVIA

amyloid beta 1-40 = biological target: T2, amyloid beta 1-40 (human, UniProt P05067 672-711); assay: SPR; cypD captured on an amine-coupled anti-cypD antibody; monomeric Aβ (Preparation C for Aβ1-40, Preparation B for Aβ1-42) injected at 1 μM for 5 min; running buffer 10 mM HEPES pH 7.4, 5 mM Na+, BSA 200 μg/mL, K+ 0-500 mM, Mg2+ 0-50 mM; 25 °C, 20 µL/min; reference-compensated response 5 min after return to buffer; details: both partners purified
T2 construct: amyloid beta fragment 1-40 (40 amino acids), human, synthetic; numbers count on: the Aβ peptide; Used in a monomeric form (Preparation C) and an oligomeric form (Preparation A); The two forms are told apart by the assay; also called Aβ_(1–40); Aβ; source: synthetic peptide; bought: AnaSpec
T2 sequence (P05067 672-711): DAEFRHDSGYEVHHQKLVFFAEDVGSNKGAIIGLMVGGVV

- binding result (amyloid beta 1-42): binds
- binding result (amyloid beta 1-40): binds
B1: cyclophilin D (enzyme)
chain: not shown
notes: cyclophilin D (cypD), human, recombinant, bought from Fitzgerald; also called cypD; source: bought: Fitzgerald (human, recombinant)
